Data: US20220195023A1
Residue numbers refer to the chain shown, from its start.

B1: AB-007029 (antibody, V domains shown)
VH: QVQLVESGGGVVQPGRSLRLSCTASGFTFSTYAMHWVRQSPGQGLQWVAVISYHSTNKYYEDSVRGRFTISRDNSKNTLYLQMNSLRAEDTAVYYCARDGYSSSFFDFWGQGTLVTVSS
VL: DIQMTQSPSTLSASVGDRVAITCRASQSISRWLAWYQQQPGKAPKLLMSGASVLESGVPSRFSGSGSGTEFTLTISSLQPDDFATYYCQHYNSYFVTFGQGTKVEIK
B2: AB-007038 (antibody, V domains shown)
VH: B1 VH with V2M, F108Y
VL: B1 VL
B3: AB-007028 (antibody, V domains shown)
VH: B1 VH with V2M, T23A, S40A
VL: B1 VL with A20T
B4: AB-007030 (antibody, V domains shown)
VH: B1 VH with V2M, Q46E, E61A
VL: B1 VL
B5: AB-007037 (antibody, V domains shown)
VH: B1 VH with V2M, R65K
VL: B1 VL
B6: AB-007035 (antibody, V domains shown)
VH: B1 VH with V2M, T31S
VL: B1 VL
B7: AB-007040 (antibody, V domains shown)
VH: B1 VH with V2M
VL: B1 VL with F95Y
B8: AB-007041 (antibody, V domains shown)
VH: B1 VH with V2M, T31D
VL: B1 VL
B9: AB-007033 (antibody, V domains shown)
VH: B1 VH with V2M, T23A, S40A, Q46E, E61A
VL: B1 VL with A20T
B10: AB-007031 (antibody, V domains shown)
VH: B1 VH with V2M
VL: B1 VL with M48I
B11: AB-007036 (antibody, V domains shown)
VH: B1 VH with V2M, H54D
VL: B1 VL
B12: AB-007072 (antibody, V domains shown)
VH: B1 VH with V2M
VL: B1 VL with V53N
B13: AB-007034 (antibody, V domains shown)
VH: B1 VH with T23A, S40A, Q46E, E61A
VL: B1 VL with A20T, M48I
B14: AB-007073 (antibody, V domains shown)
VH: B1 VH with V2M
VL: B1 VL with Y94H
B15: AB-007070 (antibody, V domains shown)
VH: B1 VH with V2M
VL: B1 VL with G50A
B16: AB-007063 (antibody, V domains shown)
VH: B1 VH with V2M
VL: B1 VL with S49A
B17: AB-007071 (antibody, V domains shown)
VH: B1 VH with V2M
VL: B1 VL with V53S
B18: AB-007061 (antibody, V domains shown)
VH: B1 VH with V2M
VL: B1 VL with S30D
B19: AB-007062 (antibody, V domains shown)
VH: B1 VH with V2M
VL: B1 VL with R31S
B20: AB-007074 (antibody, V domains shown)
VH: B1 VH with V2M, T23A, S40A
VL: B1 VL with A20T, F95Y
B21: AB-007039 (antibody, V domains shown)
VH: B1 VH with V2M
VL: B1 VL with F95S
B22: AB-007032 (antibody, V domains shown)
VH: B1 VH with T23A, S40A
VL: B1 VL with A20T, M48I
B23: AB-007042 (antibody, V domains shown)
VH: B1 VH with V2M
VL: B1 VL with S28D

Target: (NANP)6 (Plasmodium falciparum)
Assay: BLI, target on sensor

Binder	Kd [nM]
B1	0.803
B2	1.34
B3	0.501
B4	0.526
B5	0.384
B6	0.927
B7	0.56
B8	0.47
B9	0.303
B10	0.0569
B11	0.226
B12	1.65
B13	0.0899
B14	0.627
B15	0.834
B16	1.64
B17	1.66
B18	0.385
B19	0.607
B20	0.601
B21	1.19
B22	0.338
B23	0.0276

Target: (NPNA)3 (Plasmodium falciparum)
Assay: BLI, target on sensor

Binder	Kd [nM]
B1	0.166
B2	0.544
B3	0.0413
B4	0.192
B5	0.0035
B6	0.322
B7	0.337
B8	0.145
B9	0.154
B10	0.003
B11	0.00382
B12	0.842
B13	0.00372
B14	0.326
B15	0.68
B16	0.691
B17	0.694
B18	0.00376
B19	0.00796
B20	0.206
B21	0.812
B22	0.169
B23	0.00314

Target: (NVDP)3(NANP)2 (Plasmodium falciparum)
Assay: BLI, target on sensor

Binder	Kd [nM]
B1	6.67
B2	5.82
B3	4.26
B4	4.03
B5	4.44
B6	5.09
B7	4.67
B8	6.65
B9	3.47
B10	3.5
B11	17.4
B12	14.5
B13	6.14
B14	18.1
B15	14.4
B16	9.73
B17	11
B18	5.68
B19	13.6
B20	7.96
B21	7.26
B22	6.68
B23	3.9

Target: NANPNVDP (Plasmodium falciparum)
Assay: BLI, target on sensor

Binder	Kd [nM]
B1	13.2
B2	10.9
B3	9.18
B4	7.92
B5	8.41
B6	9.28
B7	9.56
B8	12.1
B9	8.08
B10	7.02
B11	29.6
B12	16.9
B13	11.5
B14	20.3
B15	19.8
B16	13.1
B17	12.9
B18	12.3
B19	22.4
B20	10.2
B21	15.3
B22	13.9
B23	8.56

Target: … (Plasmodium falciparum)
Assay: BLI, target on sensor

Binder	Kd [nM]
B1	5.62
B2	3.81
B3	2.93
B4	2.84
B5	2.47
B6	2.61
B7	4.17
B8	5.57
B9	2.62
B10	2.89
B11	16.9
B12	15.5
B13	5.44
B14	17.9
B15	15.5
B16	7.03
B17	10.4
B18	4.11
B19	14.3
B20	6.05
B21	7.97
B22	6.42
B23	2.99

Target: (NANP)6 (Plasmodium falciparum)
Assay: SPR, antibody on chip

Binder	Kd [nM]
B1	0.177
B2	0.0281
B3	0.166
B4	0.0537
B5	1.73
B6	0.757
B7	0.344
B8	0.246
B9	0.0631
B10	0.0384
B11	0.0466
B12	0.0376
B13	0.932
B14	0.871
B15	0.0786
B16	0.194
B17	0.433
B18	0.0657
B19	0.338
B20	0.665
B21	0.143
B22	1.96
B23	0.998

Target: (NPNA)3 (Plasmodium falciparum)
Assay: SPR, antibody on chip

Binder	Kd [nM]
B1	11.3
B2	8.97
B3	5.37
B4	6.88
B5	7.14
B6	5.73
B7	9.5
B8	5.64
B9	8.02
B10	8.02
B11	33.5
B12	73.9
B13	17
B14	72
B15	80.3
B16	14.1
B17	10.2
B18	6.69
B19	10
B20	8.94
B21	112
B22	13.6
B23	7.04

Target: (NVDP)3(NANP)2 (Plasmodium falciparum)
Assay: SPR, antibody on chip

Binder	Kd [nM]
B1	4790
B2	3060
B3	2350
B4	2570
B5	2690
B6	2690
B7	3110
B8	3930
B9	2680
B10	2590
B11	16700
B12	13800
B13	6710
B14	19500
B15	11600
B16	3890
B17	4870
B18	4000
B19	6250
B20	3920
B21	8250
B22	6540
B23	2310

Target: … (Plasmodium falciparum)
Assay: SPR, antibody on chip

Binder	Kd [nM]
B1	26200
B2	13100
B3	15900
B4	6520
B5	2240
B6	9750
B7	3730
B8	2520
B9	2580
B10	5210
B11	17500
B12	38700
B13	24100
B14	16500
B15	65300
B16	12200
B17	23800
B18	14600
B19	25000
B20	12800
B21	14700
B22	4830
B23	11700
